The text below walks through data of patent publication US20050020492A1 (MERCK, published 2005).

Assay [1] has as its target T1, human MCH-1R (human, UniProt Q99705 1-353). Description: cell-based or functional assay.
The target in assay [2] is T2, human MCH-2R (human, UniProt Q969V1 1-340). Description: cell-based or functional assay.
The target in assay [3] is T1, human MCH-1R. Description: ratio of the two SPA IC50s.
Assay [4] addresses T2, human MCH-2R. Description: SPA, displacement of [125I]-[Phe13,Tyr19]-hMCH, MCH-2R membranes. The protocol: (§1) After equilibrating at room temperature for 3 hours, the plates were read in a TopCount (Packard, Meriden, Conn.). IC₅₀ calculations were performed using Prism 3.0 (GraphPad. Software, San Diego, Calif.). The IC₅₀ values were measured in three different experiments.

In assay [5] the target is T1, human MCH-1R. Description: SPA, displacement of [125I]-[Phe13,Tyr19]-hMCH, CHO/MCH-1R membranes. The procedure:
as §1

In assay [6] the target is T1, human MCH-1R. Description: cell-based or functional assay. The source holds these as a separate data set.
Assay [7] deals with T2, human MCH-2R. Description: cell-based or functional assay. This is another data set of the same source.
The target in assay [8] is T2, human MCH-2R. Description: SPA, displacement of [125I]-[Phe13,Tyr19]-hMCH, MCH-2R membranes. The protocol:
as §1
This is another data set of the same source.

Like-named read-outs stand apart in the source and are kept apart here. Positions of bridges follow the written chain, without caps; N, C: chain ends. Some results are limits rather than exact numbers.

T2 sequence (Q969V1 whole entry): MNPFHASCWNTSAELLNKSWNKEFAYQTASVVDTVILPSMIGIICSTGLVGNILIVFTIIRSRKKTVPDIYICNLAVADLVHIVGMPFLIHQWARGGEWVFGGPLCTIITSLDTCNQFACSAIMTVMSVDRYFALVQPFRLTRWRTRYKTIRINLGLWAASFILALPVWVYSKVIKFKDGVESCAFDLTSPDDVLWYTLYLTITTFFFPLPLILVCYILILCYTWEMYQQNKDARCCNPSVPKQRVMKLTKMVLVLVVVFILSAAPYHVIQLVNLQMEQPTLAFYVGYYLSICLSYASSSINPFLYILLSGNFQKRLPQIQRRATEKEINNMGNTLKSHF
T1 sequence (Q99705 whole entry): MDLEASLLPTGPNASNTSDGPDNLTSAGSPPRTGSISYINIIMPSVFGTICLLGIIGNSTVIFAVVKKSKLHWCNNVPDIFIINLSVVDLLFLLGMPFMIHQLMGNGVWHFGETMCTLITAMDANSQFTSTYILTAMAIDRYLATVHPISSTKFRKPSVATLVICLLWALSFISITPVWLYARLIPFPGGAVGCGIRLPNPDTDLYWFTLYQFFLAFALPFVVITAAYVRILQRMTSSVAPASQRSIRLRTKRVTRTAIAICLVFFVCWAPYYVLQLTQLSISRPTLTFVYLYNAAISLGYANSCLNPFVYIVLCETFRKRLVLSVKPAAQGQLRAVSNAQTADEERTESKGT

B1: SEQ. ID. NO. 18 (Nle^10 analog of Ac-hMCH(6-16)-NH2) (peptide)
peptide: RCMLXRVYRPC
modifications: N-terminal acetyl; Nle (norleucine) at position 10; C-terminal amide; disulfide cycle
Regarding B1, the “Activation %, aequorin bioluminescence” value in assay [1] worked out at 115%; in assay [2], 97%. Further, the “Selectivity 2/1 (MCH-2R/MCH-1R EC50 activity ratio)” value in assay [1] is 0.4 ratio. The “Selectivity 2/1 (MCH-2R/MCH-1R IC50 ratio)” value in assay [3] was determined as 21 ratio. Moreover, the results for the IC50 in assay [4] and in assay [5] were 1.9 nM and 0.1 nM, respectively.

B2: SEQ. ID. NO. 27 (Cit^10 analog of Ac-hMCH(6-16)-NH2) (peptide)
peptide: RCMLXRVYRPC
HELM: PEPTIDE1{[ac].R.C.M.L.[Cit].R.V.Y.R.P.C.[am]}$PEPTIDE1,PEPTIDE1,3:R3-12:R3$$$V2.0
SMILES: CSCC[C@@H]1NC(=O)[C@@H](NC(=O)[C@H](CCCNC(=N)N)NC(C)=O)CSSC[C@@H](C(N)=O)NC(=O)[C@@H]2CCCN2C(=O)[C@H](CCCNC(=N)N)NC(=O)[C@H](Cc2ccc(O)cc2)NC(=O)[C@H](C(C)C)NC(=O)[C@H](CCCNC(=N)N)NC(=O)[C@H](CCCNC(N)=O)NC(=O)[C@H](CC(C)C)NC1=O
notes: also called Cit^10 peptide
As to B2, in assay [1], the “Activation %, aequorin bioluminescence” value turned out to be 91%; the “EC50, aequorin bioluminescence” value was 920 nM; the “Selectivity 2/1 (MCH-2R/MCH-1R EC50 activity ratio)” value was 0.3 ratio. In assay [2], the “Activation %, aequorin bioluminescence” value was 68% and the “EC50, aequorin bioluminescence” value was found to be 310 nM. In addition, the “Selectivity 2/1 (MCH-2R/MCH-1R IC50 ratio)” value in assay [3] stood at 42 ratio. In assay [4], this molecule yielded an IC50 of 130 nM. In assay [5], this molecule returned an IC50 of 3.1 nM.

B3: SEQ. ID. NO. 6 (Ac-D-Ala^6 analog of Ac-hMCH(6-16)-NH2) (peptide)
peptide: XCMLGRVYRPC
HELM: PEPTIDE1{[ac].[dA].C.M.L.G.R.V.Y.R.P.C.[am]}$PEPTIDE1,PEPTIDE1,3:R3-12:R3$$$V2.0
SMILES: CSCC[C@@H]1NC(=O)[C@@H](NC(=O)[C@@H](C)NC(C)=O)CSSC[C@@H](C(N)=O)NC(=O)[C@@H]2CCCN2C(=O)[C@H](CCCNC(=N)N)NC(=O)[C@H](Cc2ccc(O)cc2)NC(=O)[C@H](C(C)C)NC(=O)[C@H](CCCNC(=N)N)NC(=O)CNC(=O)[C@H](CC(C)C)NC1=O
Consider B3, for which the entries for the “Activation %, aequorin bioluminescence” value in assay [6] and in assay [7] were 109% and 51%, respectively. Besides, the “EC50, aequorin bioluminescence” value was found to be 160 nM in assay [6] and 4900 nM in assay [7]. The IC50 in assay [8] was 2700 nM; in assay [5], 0.77 nM.
For Ac-RCMLFRVYRPC-NH2 (disulfide 2-11 (inferred)) [SEQ. ID. NO. 20 (Phe^10 analog of Ac-hMCH(6-16)-NH2)], in assay [1], the “Activation %, aequorin bioluminescence” value is 75%; the “EC50, aequorin bioluminescence” value was found to be 66 nM; the “Selectivity 2/1 (MCH-2R/MCH-1R EC50 activity ratio)” value is 0.75 ratio. In assay [2], the “Activation %, aequorin bioluminescence” value came to 88% and the “EC50, aequorin bioluminescence” value was determined as 50 nM. Moreover, the “Selectivity 2/1 (MCH-2R/MCH-1R IC50 ratio)” value in assay [3] turned out to be 19 ratio. Further, in assay [4], the IC50 is 1.9 nM. Also, the IC50 in assay [5] was 0.1 nM.
For the molecule Ac-RCMLNRVYRPC-NH2 (disulfide 2-11 (inferred), also called Asn^10 peptide) [SEQ. ID. NO. 25 (Asn^10 analog of Ac-hMCH(6-16)-NH2)], in assay [1], the “Activation %, aequorin bioluminescence” value came out at 126%; the “EC50, aequorin bioluminescence” value is 51 nM; the “Selectivity 2/1 (MCH-2R/MCH-1R EC50 activity ratio)” value worked out at 4.7 ratio. In assay [2], the “Activation %, aequorin bioluminescence” value turned out to be 86% and the “EC50, aequorin bioluminescence” value came to 240 nM. In assay [3], the “Selectivity 2/1 (MCH-2R/MCH-1R IC50 ratio)” value stood at 1800 ratio. This molecule registered an IC50 in assay [4] of 490 nM. In addition, the IC50 in assay [5] was determined as 0.28 nM.
For Ac-RCMLRRVYRPC-NH2 (disulfide 2-11 (inferred)) [SEQ. ID. NO. 23 (Arg^10 analog of Ac-hMCH(6-16)-NH2)], the “Activation %, aequorin bioluminescence” value in assay [1] stood at 7%; in assay [2], 38%. The entries for the “EC50, aequorin bioluminescence” value in assay [1] and in assay [2] were > 10000 nM and 1660 nM, respectively. For the same molecule, in assay [3], the “Selectivity 2/1 (MCH-2R/MCH-1R IC50 ratio)” value is 0.7 ratio. In addition, the IC50 in assay [4] turned out to be 420 nM; in assay [5], 640 nM.
For Ac-RCMLSRVYRPC-NH2 (disulfide 2-11 (inferred), also called Ser^10 peptide) [SEQ. ID. NO. 26 (Ser^10 analog of Ac-hMCH(6-16)-NH2)], in assay [1], the “Activation %, aequorin bioluminescence” value was 120%; the “EC50, aequorin bioluminescence” value came out at 130 nM; the “Selectivity 2/1 (MCH-2R/MCH-1R EC50 activity ratio)” value was 0.7 ratio. Also, in assay [2], the “Activation %, aequorin bioluminescence” value was found to be 87% and the “EC50, aequorin bioluminescence” value worked out at 89 nM. In addition, in assay [3], the “Selectivity 2/1 (MCH-2R/MCH-1R IC50 ratio)” value is 100 ratio. The same molecule displayed an IC50 in assay [4] of 55 nM. Besides, the IC50 in assay [5] amounted to 0.54 nM.
In the case of Ac-RCMLPRVYRPC-NH2 (disulfide 2-11 (inferred)) [SEQ. ID. NO. 22 (Pro^10 analog of Ac-hMCH(6-16)-NH2)], the “Activation %, aequorin bioluminescence” value stood at 10% in assay [1] and 13% in assay [2]. Besides, the “EC50, aequorin bioluminescence” value in assay [1] and in assay [2] was > 10000 nM throughout. Also, in assay [3], the “Selectivity 2/1 (MCH-2R/MCH-1R IC50 ratio)” value worked out at 5 ratio. The IC50 in assay [4] was found to be 3500 nM; in assay [5], 760 nM.
As for Ac-RCMLERVYRPC-NH2 (disulfide 2-11 (inferred), also called Glu^10 peptide) [SEQ. ID. NO. 28 (Glu^10 analog of Ac-hMCH(6-16)-NH2)], in assay [1], the “Activation %, aequorin bioluminescence” value turned out to be 21% and the “EC50, aequorin bioluminescence” value is > 10000 nM. Besides, in assay [2], the “Activation %, aequorin bioluminescence” value stood at 22% and the “EC50, aequorin bioluminescence” value is > 10000 nM. In assay [5], this molecule gave an IC50 of 290 nM.
Take Ac-RCMLKRVYRPC-NH2 (disulfide 2-11 (inferred)) [SEQ. ID. NO. 24 (Lys^10 analog of Ac-hMCH(6-16)-NH2)]: in assay [1], the “Activation %, aequorin bioluminescence” value was found to be 43%; the “EC50, aequorin bioluminescence” value amounted to 5700 nM; the “Selectivity 2/1 (MCH-2R/MCH-1R EC50 activity ratio)” value was determined as 1 ratio. In addition, in assay [2], the “Activation %, aequorin bioluminescence” value came to 40% and the “EC50, aequorin bioluminescence” value was found to be 6050 nM. Also, in assay [3], the “Selectivity 2/1 (MCH-2R/MCH-1R IC50 ratio)” value came out at 86 ratio. The same molecule came in with an IC50 in assay [4] of 1460 nM. This molecule also registered an IC50 in assay [5] of 17 nM.
